Source: article PMC5371648

Target: modern EF-Tu (elongation factor Tu) from E. coli (E. coli) (UniProt P0CE47)
Assay: ITC; Microcal ITC200; 0.6-1 mM NusA in the syringe titrated (2.5 uL injections, 120-s intervals) into 10 uM EF-Tu in the cell; Buffer C (20 mM Tris-HCl pH 7.5, 50 mM MgCl2, 100 mM KCl)

wild-type NusA protein from E. coli (from UniProt P0AFF6 1-495) (natural protein)
Kd: 14.6 µM
